Measured values: PMC4922666, “L-Tryptophan Production in Escherichia coli Improved by Weakening the Pta-AckA Pathway” (PLoS ONE, 2016)
Where a chain is given by its changes, count along the chain named. In names and notes the source's numbering stands.

B1: Pta (phosphate acetyltransferase; EC 2.3.1.8) (Escherichia coli K-12) (protein)
chain: SRIIMLIPTGTSVGLTSVSLGVIRAMERKGVRLSVFKPIAQPRTGGDAPDQTTTIVRANSSTTTAAEPLKMSYVEGLLSSNQKDVLMEEIVANYHANTKDAEVVLVEGLVPTRKHQFAQSLNYEIAKTLNAEIVFVMSQGTDTPEQLKERIELTRNSFGGAKNTNITGVIVNKLNAPVDEQGRTRPDLSEIFDDSSKAKVNNVDPAKLQESSPLPVLGAVPWSFDLIATRAIDMARHLNATIINEGDINTRRVKSVTFCARSIPHMLEHFRAGSLLVTSADRPDVLVAACLAAMNGVEIGALLLTGGYEMDARISKLCERAFATGLPVFMVNTNTWQTSLSLQSFNLEVPVDDHERIEKVQEYVANYINADWIESLTATSERSRRLSPPAFRYQLTELARKAGKRIVLPEGDEPRTVKAAAICAERGIATCVLLGNPAEINRVAASQGVELGAGIEIVDPEVVRESYVGRLVELRKNKGMTETVAREQLEDNVVLGTLMLEQDEVDGLVSGAVHTTANTIRPPLQLIKTAPGSSLVSSVFFMLLPEQVYVYGDCAINPDPTAEQLAEIAIQSADSAAAFGIEPRVAMLSYSTGTSGAGSDVEKVREATRLAQEKRPDLMIDGPLQYDAAVMADVAKSKAPNSPVAGRATVFIFPDLNTGNTTYKAVQRSADLISIGPMLQGMRKPVNDLSRGALVDDIVYTIALTAIQSAQQQ
notes: full length, untagged by primers (NdeI/HindIII in pET24a, native stop codon), expressed in E. coli BL21(DE3), DEAE-Sepharose purified, about 77 kDa; variant Pta1 (P69L) is natural in E. coli CCTCC M 2016009
B2: Pta (phosphate acetyltransferase; EC 2.3.1.8) (Escherichia coli K-12; P69L) (protein)
chain: B1 chain with P68L
notes: as for B1

Substrate: CC(=O)SCCNC(=O)CCNC(=O)[C@H](O)C(C)(C)COP(=O)(O)OP(=O)(O)OC[C@H]1O[C@@H](n2cnc3c(N)ncnc32)[C@H](O)[C@@H]1OP(=O)(O)O
Experiment: initial rates, Michaelis-Menten nonlinear regression
Type: biochemical, Escherichia coli
Settings: 100 mM phosphate buffer pH 7.4, 25°C, acetyl-CoA 20-400 μmol/L
Description: initial rates, Michaelis-Menten nonlinear regression on Pta (phosphate acetyltransferase; EC 2.3.1.8)

[1] = natural variant Pta1 from E. coli CCTCC M 2016009

| Protein | Km | kcat | kcat/Km | Km [1] | kcat [1] | kcat/Km [1] |
| --- | --- | --- | --- | --- | --- | --- |
| B1 | 89 ± 6.3 µM | 2380 ± 120 s⁻¹ | 2.7e+07 ± 3.6e+06 M⁻¹ s⁻¹ | – | – | – |
| B2 | – | – | – | 260 ± 13 µM | 1480 ± 74 s⁻¹ | 5.7e+06 ± 500000 M⁻¹ s⁻¹ |
